Data: patent US20260035452A1 (THE UNIVERSITY OF BIRMINGHAM, priority 2022, published 2026)

Assays:
neutrophils = assay: Transwell chemotaxis assay; assay type: cell-based, human
Description: The cells migration after IL-17 (10-500 ng/ml), FM-0410 (10-500 ng/ml) or N-Formylmethionine-leucyl-phenylalanine (fmlp; 10^−6 M) treatment was quantified using CountBright™ Absolute Counting Beads. Data were presented as means±S.D. of n=3 healthy donors. Statistical analysis was conducted by one-way ANOVA followed by Bonferroni's for multiple comparisons. ^#P≤0.05, ^##P≤0.01, ^###P≤0.001, ^####P≤0.0001 vs Ctrl group; ^+P≤0.05 vs IL-17. Neutrophil isolation: Blood was taken according to local research ethics committee approval (QMERC2014/61). Informed consent was provided according to the Declaration of Helsinki. All blood samples were collected on the day of experiments from healthy donors and immediately used. Each condition has 3 biological replicates (3 different donors). Neutrophils were isolated using a double density histopaque gradient and hypotonic lysis as described previously. Transwell chemotaxis assay: Chemotaxis was assessed using a transwell assay. […] After 2 hours at 37° C., neutrophils were collected from the bottom wells and quantified by flow cytometry using CountBright™ Absolute Counting Beads (Thermofisher, Rugby, UK) as previously described.

[1] = test system: NIH-3T3 mouse embryonic fibroblast cells; assay: IL-6 secretion by NIH-3T3 fibroblasts (Elisa); assay type: cell-based; conditions: NIH-3T3 cells, 50 ng/ml, vs control / IL-17 group
Description: FIG. 2: NIH-3T3 mouse embryonic fibroblast cells were treated with IL-17 vehicle (Ctrl), IL-17 (50 ng/ml) alone (IL-17) or peptide (FM-0410) (50 ng/ml) and supernatants were assayed by Elisa for IL-6. Data were expressed as pg/ml and presented as means±S.D. of three separate independent experiments. Statistical analysis was conducted by one-way ANOVA followed by Bonferroni's for multiple comparisons. ^##P≤0.01, ^###P≤0.005 vs Ctrl group; *P≤0.05 vs IL-17 group. In order to assess the biological activity of synthesized peptide, we carried out in vitro studies using NIH-3T3 mouse embryonic fibroblast cells. […] With this in vitro system we measured IL-17 activity by its ability to induce IL-6 secretion by NIH-3T3 mouse embryonic fibroblast cells. Methods: The levels of IL-6 in the cellular and air pouch inflammatory supernatants at 24 h were measured using commercially available enzyme-linked immunosorbent assay kit (ELISA kit, R&D System, Milan, Italy) according to the manufacturer instructions. […] The addition of 100 μl of the substrate and stop solution represented the last steps before the reading of absorbance (measured at 450 nm) on a microplate reader. Antigen levels in the samples were determined using a standard curve and expressed as pg/ml. […]

B1: IL-17: recombinant mouse IL-17 purchased from R&D System; full-length cytokine used as comparator and stimulus (protein, UniProt Q62386 26-158, looked up)
Interleukin-17A: AAIIPQSSACPNTEAKDFLQNVKVNLKVFNSLGAKVSSRRPSDYLNRSTSPWTLHRNEDPDRYPSVIWEAQCRHQRCVNAEGKLDHHMNSVLIQQEILVLKREPESCPFTFRVEKMLVGVGCTCVASIVRQAA
- chemotactic activity compared to positive control fmlp (10^−6 M) (neutrophils; 500 ng/ml): almost similar to positive control fmlp
- chemotactic effect on neutrophils (neutrophils; 10-500 ng/ml, vs Control group): concentration-dependent chemotactic effect
- IL-6 release [1]: significant increase in IL-6 release compared to control group
